In patent US20250009876A1 (H LUNDBECK A S, published 2025):
Like-named read-outs stand apart in the source and are kept apart here.

What was measured:
[1] = target: T1, PACAP27 (Pituitary Adenylate Cyclase-Activating Polypeptide, 27 amino acids) (human, the C-terminal leucine is amidated); assay: cell-based or functional assay
T1 peptide: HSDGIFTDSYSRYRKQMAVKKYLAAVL

[2] = target: T2, PACAP38 (Pituitary Adenylate Cyclase-Activating Polypeptide, 38 amino acids) (human, not fully specified; the C-terminal lysine is amidated); assay: cell-based or functional assay
T2 peptide: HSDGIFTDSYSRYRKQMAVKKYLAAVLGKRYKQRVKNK

[3] = target: T2, PACAP38 (Pituitary Adenylate …); assay: HTRF binding assay, antibody dilution series on 35 nM biotinylated PACAP38
Protocol: In parallel, 10 μl of an antibody dilution series (highest final concentration of 100 nM) were incubated with 10 μl of N-terminal or C-terminal biotinylated PACAP38 (35 nM final) alone, or in combination with either PACAP27 (350 nM final) or VIP (350 nM final), i.e., 10× PACAP27 or 10× VIP, respectively, in a HTRF plate. 20 μl of Eu³⁺ cryptate labeled anti-hu Fc donor and 20 μl of d2-labeled streptavidin acceptor were added to each well and incubated for 1 hour at room temperature. Fluorescence was measured at 620 and 665 nm with a delay of 300 usec.
EC₅₀ values, i.e. the concentration of an antibody that yields a response halfway between the baseline and the maximum value within a specified time period, were computed for each antibody based upon their binding curves and are shown in Table 1 below. […] A humanized form of antibody Ab1 identified by an appended “.H”, i.e., Ab1.H also bound PACAP38 with high affinity.

[4] = target: T2, PACAP38 (Pituitary Adenylate …); assay: cell-based or functional assay
[5] = target: T2, PACAP38 (Pituitary Adenylate …); assay: inhibition of 30 nM biotinylated PACAP38 binding to PAC1-R-expressing PC-12 cells, Eu-streptavidin TRF
Protocol: To identify antibodies that block PACAP38 binding to PAC1-R-expressing cells, adherent PC-12 cells (ATCC, Manassas, VA) expressing PAC1-R were used in a Europium-based PAC1-R-expressing cells binding assay. Antibody solutions were incubated with N-terminal biotinylated PACAP38 at 10× the final concentration (100 nM or 30 nM) for 1 hr, then added to PC-12 cells that were plated 24 hrs prior in black clear bottom 96 well plates (COSTAR™, Corning Incorporated, Corning, NY) and further incubated for 1 hr at room temperature. After three washes, the cells were incubated with 20 μl Europium-labeled streptavidin (PerkinElmer, Waltham, MA) for 1 hr at room temperature. Cells were washed three times, then 20 μl DELFIA® Enhancement solution (PerkinElmer, Waltham, MA) was added to each well and incubated for 15 minutes with gentle shaking. Plates were read (Time Resolved Fluorescence (“TRF”)) on SPECTRAMAX® (Molecular Devices, Sunnyvale, CA) plate reader.
FIGS. 14A-14H are representative of the inhibition curves obtained by this method (results are shown for Ab10, Ab20, Ab21, Ab1.H, Ab10.H, Ab21.H, Ab22, and Ab23, respectively) wherein the PAC1-R expressing cells were PC-12 cells.

[6] = target: T3, VIP (Vasoactive Intestinal Peptide) (human); assay: SPR (ProteOn XPR36), antibody amine-coupled, peptide analyte, 1:1 Langmuir fit; SPR, direct binding of VIP to the antibody; weak, KD 3.1E-07 M
T3 construct: also called human VIP
T3 peptide: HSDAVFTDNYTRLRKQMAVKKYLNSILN

[7] = target: T1, PACAP27 (Pituitary Adenylate …); assay: SPR (ProteOn XPR36), antibody amine-coupled, peptide analyte, 1:1 Langmuir fit
Protocol: (§1) Binding affinities of monoclonal antibodies for human PACAP were estimated using SPR on the PROTEON™ XPR36 (Bio-Rad, Hercules, CA). Antibody was immobilized to the surface of general amine coupling (“GLC” or “GLM”) Chips (Bio-Rad, Hercules, CA). […] Antigen (ranging from 1.23 nM to 100 nM) was typically run sequentially with association times of 2-4 minutes and dissociation times of 3-120 minutes grouped with the PROTEON™ Manager Software (v3.1.0.6 (Bio-Rad, Hercules, CA)) and fitted using a 1:1 Langmuir binding model. Surfaces were regenerated between analyte queries using 0.85% Phosphoric Acid.

[8] = target: T2, PACAP38 (Pituitary Adenylate …); assay: as above
Protocol: as §1

[9] = target: T2, PACAP38 (Pituitary Adenylate …); assay: cell-based or functional assay
[10] = target: T1, PACAP27 (Pituitary Adenylate …); assay: cell-based or functional assay
[11] = target: T2, PACAP38 (Pituitary Adenylate …); assay: cell-based or functional assay
[12] = target: T1, PACAP27 (Pituitary Adenylate …); assay: inhibition of 0.1 nM 125I-PACAP27 binding to membranes with human PAC1-R long isoform, filter binding
Protocol: To identify antibodies that block PACAP27 binding to PAC1-R, antibodies at an initial concentration of 30 nM were diluted in incubation buffer (50 mM Hepes pH 7.4, 1 mM CaCl₂, 5 mM MgCl₂, 0.2% BSA) and serial 1:3 dilutions were performed. Antibody dilutions (30 nM, 10 nM, 3 nM, 1 nM, 0.3 nM, 0.1 nM, 0.03 nM, 0.01 nM, 0.003 nM and 0.001 nM) were then mixed and pre-incubated at 25° C. for 30 minutes with 0.1 nM of ¹²⁵I-labelled PACAP27 in incubation buffer. The antibody: ¹²⁵I-labelled PACAP27 mixture was then added to 0.5 μg aliquots of cell membranes derived from Chem-1 cells expressing human recombinant PAC1-R long isoform in incubation buffer. The mixture was then incubated for 1 hour at 25° C. Following incubation, the samples were filtered and washed. Afterward, the filters were counted to quantitate ¹²⁵I-labelled PACAP27. As an experimental control, non-specific binding to the cell membranes was estimated using 0.1 μM of […] PACAP27.

[13] = target: T4, PAC1-R on PAC1-R-expressing PC-12 cells (UniProt P32215 20-523); assay: cell surface binding assay (DELFIA TRF): antibody pre-incubated with PACAP38, added to PAC1-R-expressing PC-12 cells, detected with Eu anti-human IgG
T4 construct: whole, on cells; also called PAC1 receptor
T4 sequence (looked up): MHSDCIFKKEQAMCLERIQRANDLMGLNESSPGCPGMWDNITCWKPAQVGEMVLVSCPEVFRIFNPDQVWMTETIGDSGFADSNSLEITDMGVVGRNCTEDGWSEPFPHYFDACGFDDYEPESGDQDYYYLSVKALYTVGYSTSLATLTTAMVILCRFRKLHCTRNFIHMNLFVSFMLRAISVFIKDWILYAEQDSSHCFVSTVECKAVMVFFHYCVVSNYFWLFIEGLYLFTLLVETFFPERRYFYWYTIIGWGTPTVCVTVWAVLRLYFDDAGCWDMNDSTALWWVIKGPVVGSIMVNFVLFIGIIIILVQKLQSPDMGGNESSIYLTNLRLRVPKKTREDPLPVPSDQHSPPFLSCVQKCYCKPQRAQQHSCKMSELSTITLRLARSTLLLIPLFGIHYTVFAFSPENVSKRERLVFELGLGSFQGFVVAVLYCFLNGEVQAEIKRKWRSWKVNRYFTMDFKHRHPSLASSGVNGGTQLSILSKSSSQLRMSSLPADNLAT
Protocol: Cells were initially seeded at 1×10⁵ cells/well in a solution of complete RPMI (“cRPMI”: RPMI medium supplemented with 10% sterile heat-inactivated FBS and 1% sterile antibiotic/antimycotic)+10% FBS, and the plates were allowed to incubate overnight at 37° C. On the day of the binding assay, antibodies at an initial concentration of 15 μg/ml were diluted at a 1:3 ratio in DELFIA® binding buffer (50 mM Tris, 150 mM NaCl, 0.1% azide, 2% horse serum) (Perkin-Elmer, Waltham, MA) to a total volume of 60 μL in a separate 96 well round bottom plate. PACAP38 was prepared for the binding assay by diluting it in DELFIA® binding buffer to a concentration of 200 nM, and then 60 μl of the diluted PACAP38 was added to each of the antibody-containing wells to form antibody: antigen complexes. Following addition of PACAP38, the antibody: antigen complexes were incubated at room temperature on a shaker for 1 hour. Separately, the PC-12 cells were prepared for addition of antibody: antigen complexes by washing the cells two times with DELFIA® wash buffer (50 mM Tris, 150 mM NaCl, 0.1% Azide) (Perkin-Elmer, Waltham, MA). After washing the cells two times and following the 1 hour room temperature incubation of the antibody: antigen complexes, 50 μl of the antibody: antigen complex was added to each well containing cells. The mixtures of cells and antibody: antigen complexes were then incubated for 30 minutes at room temperature. Following this 30 minute incubation, each mixture was washed two times with DELFIA® wash buffer (Perkin-Elmer, Waltham, MA).
DELFIA® Europium labeled anti-human IgG detection reagent (Cat #1244-330, Perkin-Elmer, Waltham, MA) was diluted to a concentration of 300 ng/ml in DELFIA® Binding Buffer. Following dilution, 50 μl of the anti-human IgG detection reagent was added to each well containing cells, and a 30 minute incubation at room temperature followed this addition of IgG detection reagent. After completion of the 30 minute room temperature incubation, the cells were then washed two times with DELFIA® wash buffer. Next, 50 μl of DELFIA® Enhancement Solution (Cat #1244-105, Perkin-Elmer, Waltham, MA) was added to each well containing cells for a final 15 minute room temperature incubation with shaking. The plates were then read (TRF, excitation 330 nm, emission 620 nm) on a SPECTRAMAX® (Molecular Devices, Sunnyvale, CA) plate reader.

[14] = target: T3, VIP (Vasoactive Intestinal Peptide); assay: SPR (ProteOn XPR36), antibody amine-coupled, peptide analyte, 1:1 Langmuir fit

B1: Ab21 (antibody, human IgG1, kappa, N297A, V domains shown)
VH: QSVEESGGRLVTPGTPLTLTCTVSGIDLSSYYMTWVRQAPGKGLEWVGFIDAGGSAYYATWAKGRFTISKASTTVDLKITSPTTEDTATYFCARDLDLWGPGTLVTVSS
VL: AAVLTQTPSPVSAAVGGTVSISCKSSESVYGDYLAWFQQKPGQPPKQLIYDASTLASGVPSRFKGSGSGTQFTLTISGVQCDDAATYYCAGGYVSAGVAFGGGTEVVVKR
notes: Full-length anti-PACAP antibody; rabbit/human chimeric
[1]
  Inhibition of 0.1 nM PACAP27-induced PAC1-R mediated cAMP increase IC50 (pM): 140 pM
[2]
  Inhibition of 0.1 nM PACAP38-induced PAC1-R mediated cAMP increase IC50 (pM): 239 pM
[3]
  EC50: 0.84 nM
[4]
  Inhibition of 1 nM PACAP38-induced human VPAC2-R mediated cAMP increase IC50 (pM): 5220 pM
[5]
  IC50: 20.3 nM
[6]
  Kd: 310 nM
  koff: 0.00054 s⁻¹
  kon: 1700 M⁻¹ s⁻¹
[7]
  Kd: ≤ 0.013 nM
  koff: ≤ 1e-05 s⁻¹
  kon: 790000 M⁻¹ s⁻¹
[8]
  Kd: ≤ 0.027 nM
  koff: ≤ 1e-05 s⁻¹
  kon: 370000 M⁻¹ s⁻¹
[9]
  Inhibition of 5 nM PACAP38-induced human VPAC1-R mediated cAMP increase IC50 (pM): 2850 pM

B2: Ab10.H3 (antibody, human IgG1, kappa, N297A)
heavy: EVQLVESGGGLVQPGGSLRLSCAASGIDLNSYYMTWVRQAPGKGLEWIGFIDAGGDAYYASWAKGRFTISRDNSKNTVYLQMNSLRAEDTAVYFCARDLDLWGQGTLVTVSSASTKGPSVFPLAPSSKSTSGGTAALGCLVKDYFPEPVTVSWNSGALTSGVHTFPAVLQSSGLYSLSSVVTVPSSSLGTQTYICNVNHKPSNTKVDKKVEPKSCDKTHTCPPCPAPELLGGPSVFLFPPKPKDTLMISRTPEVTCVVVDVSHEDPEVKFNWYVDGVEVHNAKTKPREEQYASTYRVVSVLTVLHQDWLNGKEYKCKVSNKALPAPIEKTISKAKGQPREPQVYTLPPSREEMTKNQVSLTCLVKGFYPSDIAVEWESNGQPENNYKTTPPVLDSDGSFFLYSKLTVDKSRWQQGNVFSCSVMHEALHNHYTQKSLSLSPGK
light: DIQLTQSPSTLSASVGDRVTITCQSSESVYGNYLAWFQQKPGKAPKFLIYEASKLESGVPSRFSGSGSGTEFTLTISSLQPDDFATYYCAGGDISEGVAFGGGTKVEIKRTVAAPSVFIFPPSDEQLKSGTASVVCLLNNFYPREAKVQWKVDNALQSGNSQESVTEQDSKDSTYSLSSTLTLSKADYEKHKVYACEVTHQGLSSPVTKSFNRGEC
notes: Full-length humanized variant of Ab10
[10]
  Inhibition of 1 nM PACAP27-induced PAC1-R mediated cAMP increase IC50 (pM): 321 pM
[11]
  Inhibition of 0.1 nM PACAP38-induced PAC1-R mediated cAMP increase IC50 (pM): 30.7 pM
[12]
  IC50: 0.21 nM
[4]
  Inhibition of 1 nM PACAP38-induced human VPAC2-R mediated cAMP increase IC50 (pM): 301 pM
[13]
  binding result: no binding (tested: about 70 nM)
[7]
  Kd: ≤ 0.059 nM
  koff: ≤ 1e-05 s⁻¹
  kon: 170000 M⁻¹ s⁻¹
[8]
  Kd: ≤ 0.022 nM
  koff: ≤ 1e-05 s⁻¹
  kon: 450000 M⁻¹ s⁻¹
[14]
  Kd: 91 nM
  koff: 0.013 s⁻¹
  kon: 140000 M⁻¹ s⁻¹
[9]
  Inhibition of 5 nM PACAP38-induced human VPAC1-R mediated cAMP increase IC50 (pM): 1520 pM

B3: Ab21.H (antibody, human IgG1, kappa, N297A)
heavy: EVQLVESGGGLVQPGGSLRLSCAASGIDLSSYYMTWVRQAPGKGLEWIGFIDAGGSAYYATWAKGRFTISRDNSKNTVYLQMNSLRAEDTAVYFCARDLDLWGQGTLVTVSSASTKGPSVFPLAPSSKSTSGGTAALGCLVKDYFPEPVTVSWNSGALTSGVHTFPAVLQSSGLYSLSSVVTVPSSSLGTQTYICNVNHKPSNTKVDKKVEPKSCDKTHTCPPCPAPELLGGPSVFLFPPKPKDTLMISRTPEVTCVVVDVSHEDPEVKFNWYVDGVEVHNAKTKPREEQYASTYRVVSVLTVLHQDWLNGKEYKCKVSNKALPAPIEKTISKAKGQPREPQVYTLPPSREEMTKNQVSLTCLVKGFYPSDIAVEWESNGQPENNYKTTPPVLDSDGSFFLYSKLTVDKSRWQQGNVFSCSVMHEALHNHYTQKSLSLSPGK
light: DAQLTQSPSTLSASVGDRVTITCKSSESVYGDYLAWFQQKPGKAPKQLIYDASTLASGVPSRFSGSGSGTEFTLTISSLQPDDFATYYCAGGYVSAGVAFGGGTKVEIKRTVAAPSVFIFPPSDEQLKSGTASVVCLLNNFYPREAKVQWKVDNALQSGNSQESVTEQDSKDSTYSLSSTLTLSKADYEKHKVYACEVTHQGLSSPVTKSFNRGEC
notes: Full-length humanized variant of Ab21
[1]
  Inhibition of 0.1 nM PACAP27-induced PAC1-R mediated cAMP increase IC50 (pM): 204 pM
[2]
  Inhibition of 0.1 nM PACAP38-induced PAC1-R mediated cAMP increase IC50 (pM): 246 pM
[12]
  IC50: 0.39 nM
[4]
  Inhibition of 1 nM PACAP38-induced human VPAC2-R mediated cAMP increase IC50 (pM): 1510 pM
[5]
  IC50: 12.7 nM
[7]
  Kd: ≤ 0.016 nM
  koff: ≤ 1e-05 s⁻¹
  kon: 630000 M⁻¹ s⁻¹
[8]
  Kd: ≤ 0.021 nM
  koff: ≤ 1e-05 s⁻¹
  kon: 480000 M⁻¹ s⁻¹
[14]
  Kd: 440 nM
  koff: 0.059 s⁻¹
  kon: 140000 M⁻¹ s⁻¹
[9]
  Inhibition of 5 nM PACAP38-induced human VPAC1-R mediated cAMP increase IC50 (pM): 2100 pM
